Reference: the DeepSol protein solubility set

Assay: soluble on expression in E. coli; label from the status in PepcDB or PDB records

For “MFMIEVEIFPHRYLKASTTEKFLNKIYDLKTVERVVIHGQPLPKVITYGPARGLPVNHTERKIIHVKGVPVELTVMAGRFWITLSDDSELDKLDEICKEMFPFGYNLRVGKFLKDRPTVTDYIKYGEDGVFLINEMDRRLIGMVDPRSRMANSVTVVEKEEKEELEHHHHHH”, which “soluble on expression in E. coli” value is on record?
The value was “soluble”.

With “MGSDKIHHHHHHSNINPSNGEGRDPLENFNRAMWKINYEVIDPHIFKPVAKGWRDYVPAPIKRSLVNIANNLDEPASFVNRLIEGDGQKAMRHFTRFWINSTFGLAGLIDWASQIKELKLENGNREFGDTLGHYGVPAGSYIMAPGYGPITPRQAVGKVVDSVYPMLSMLATPWMLTKFFVQSIDTRAQFINQEALLTNSADPYISFREAYFQNLRFKVKDGDVSDIQEQLSQEELDQID” as the sequence, how does the “soluble on expression in E. coli” value read?
The value was “not soluble”.

Which “soluble on expression in E. coli” value does the source give for “MGSDKIHHHHHHMDNLIITPNYVTEFNCVGPACEDSCCKNWTVYFDKKSYKHTISNPAFADLAKIAFVEIKESKENWASIKLDEQGACPFLTQEELCKIHQVGGEAALSYTCKTYPKKDTLVGKDKYQSLSLSCPEAARLVLFDPNAFQFQSHNGGNKKPAKPSPVWLEKSYQYSLDLLINANLDWELALLAIGLLIKTAEDASQYQIPIEELDKRHDQLKRFAESGLMAQQFEKTPYASQLQANLFVTIHSELCKINPRSGKARFGELNLAIEQACNEDNHYSIDLINQAWNQVAQPALKENPDVFERYILYYLFHNHFPGPVTQTPSQSFILLAIDCFMIRCYLSAMALKNNGINQREIILCFQVYQVIRQHRSSFVARLEELVEECGLNSISAVMTLLKTN” here?
Its value is “not soluble”.

For “MKFQWIGVLVFIGIVNCLISSQKLTVKENEERLKSCGNTFLPIPSINQTGKGFGFFNDKTYTYNSKSGWLLLAGHKNRSTRVYATAFPISEYHILISSRVMLTAEHKWIMNGKPFDKNNCSGGRHLDVPRDVLDNILFWYGKKPKKADISKARMFFACDNQDLKAYPVLIELNKTSKRPWAFNGVPCLADETTSSKLGDVVHFYGYSDYDLLHHKLLIKAVKDGGICTETYYTEEVGGPLVQNVSGKATVIGLKAPGSRENCELFYDLSKLQKEICDYSGVCGYEKPTLTTEPTPVTTEKSTVSTTISTSLETTIMQASSASPTSIKPSTTTEPSPLQASSKPATEPLLRPESTRRASSSASSKPEVQTTIPTEIRTSSLPTPFLKTSTTVTTTTPEPATVDYGDDHDMIGLDDEYGDESNKGVGKIDRIVGFFVLLLVIE”, which “soluble on expression in E. coli” value is on record?
Its value is “not soluble”.

With “MGSDKIHHHHHHMTQTPVTLDQKVGEKRDRMRGVFSTQEIRKVGTGTTTRKTIQKSFWYVDEGDDGVIEVQPLNSNYVPSGPKRKIDRDELLDKFAPEPEFYVQTVFPKMRELNKTIARADRHRQKGETFSAEFEYNNALKVDEENVRANFGIGLTYLERGETDKADNIFERLVKLDAAFEEEHKHLFNEFGINLRKSKMYDQAVEYYGRALELSQGDENLHLNVARAYLEKQDFPHCLEHVLRALMINPAHEAGLKFLAWMEAKKLVPEDQRAAVAEAVARARSTGGTPASAANEG” as the sequence, how does the “soluble on expression in E. coli” value read?
The value was “not soluble”.

For “MSEQKIEVVGKLGSTYGIRGWLRLYSSTEKAESIFDYQPWFLKIKGQWQLIELESWRYHSNDLIVKLKGTEDREAAQLLTNAEIGVDLSVFPKLGEEDYYWHDLINCQVVNLENYTMGVVTELMETGSNDVLVVRANSKDAFGKQERLIPFLYKQVVKRVDLSTKTITVDWDAGFLEHHHHHH”, which “soluble on expression in E. coli” value is on record?
Its value is “soluble”.

For “MGSDKIHHHHHHMDSNIFISTYHIRYGQEDSSMNKLKILFVLFTNIKTGAGTEKSLYYYLKYADISKFDITVLQTNLMPGGQRLSDSDLETIKNKAKFIEIKDYRGLLGFIRNKYLSYLLNLFILPMLLKICKYTVYHKKLKQLKDSNVIYLFNNDYSNLFSHKSVVIGSNHCAFDNLDSFSQKLIARLLSLRIILPSITAFHLFPHNVSFKEYFGNKPLILLSNGVDTDLYYPSHSQNLKTKILFVGRLEEVKGILMAIKVYNNIKKMFPVEFVIVGSGSLESEVDKLCASDTNVKHFKHVAENDLANIYRSCDIFLYPTQGDSYALVVLEALSSGLKVVTTVNIYRVYNDFIRFNVIKFADFDEKSLTQALLDIKNTVINKNEIHNYIEKNYSWKKVSENLFNLMYNLAVKN”, which “soluble on expression in E. coli” value is on record?
The value was “not soluble”.

For “MATKKDVHDLFLNHVNSNAVKTRKMMGEYIIYYDSVVIGGLYDNRLLVKATKSVRHQLQDNTLVSPYPGAKEMILIPDITEAINLTNLFELIKNDLKN”, which “soluble on expression in E. coli” value is on record?
Its value is “not soluble”.

For “MSLERIDIASVKGGVGKSFIAYFLSKTLAASHKILLIDKDLTSTLSRVYNIKGNLLSYLTVGQSSLAYFKEVDSGLTVVNVGCSRKIKNVEPKKIADIYSGFSDHDLMIVDNPSIPSDVCLDTELQAYYTYLNEKRLDYNLILILPPNQLLLDESLAFMQLFKDYIKNELSISLGNDLVNFDVISSVINMYNPRERIDISKIKDLTSKIVKIPFKKEAIYTPFNQLNTPMEISELAKYVLEYLESREGHHHHHH”, which “soluble on expression in E. coli” value is on record?
Its value is “soluble”.

With “MGSDKIHHHHHHMNLLPLFLAVAEEDNFRAAADRLGVTRSAVSQGIRRLEDAFGTTLVTRTTRSVRLTEAGERLREALSQPLSDIGTALDRVAGEDEPRGLLRIAVTSIAEQFLSGPLIASFAQAHPKVAIDVTVTDEEFDIVAAGFDAGVRLGEVIEQDMIAVPLTGDQRELAVAAPTYLAVRGTPAHPRELVHHRCIGWRRAPNVAPYRWEFEENGVPFDVAVEPQITTNDLRFMLRSALCGAGITFATEETFRPFVETGELVPLLQDFLPPFPGFFLYFPQRRNMTPKMRALIEHVRRWR” as the sequence, how does the “soluble on expression in E. coli” value read?
The value was “not soluble”.

Which “soluble on expression in E. coli” value does the source give for “GSTAIGINDTYSEVKSDLAQQKAEMELSDLIRKGYHKALVKLKLKKNTVDDISESLRQGGGKLNFDELRQDLKGKGHTDAEIEAIFTKYDQDGDQELTEHEHQQMRDDLEKEREDLDLDHSSL” here?
The value was “soluble”.

Which “soluble on expression in E. coli” value does the source give for “TDQFGMIGLLTFIRAAETDPGMVHLALGSDLTTLGLNLNSPENLYPKFASPWASSPCRPQDIDFHVPSEYLTNIHIRDKLAAIKLGRYGEDLLFYLYYMNGGDVLQLLAAVELFNRDWRYHKEERVWITRAPGMEPTMKTNTYERGTYYFFDCLNWRKVAKEFHLEYDKLEERPHLPSTFNYNPAQQAF” here?
The value was “soluble”.

With “MKLPVVESFFSLQGEGKRIGKPSLFLRLGGCNLSCKGFNCKTLLNDEILTGCDSLYAVHPKFKTSWDYYNEPKPLIERLEDLAPNYKDFDFILTGGEPSLYFNNPILISVLEHFYRQKIPLCVESNGSIFFEFSPILKELHFTLSVKLSFSLEEESKRIHLKALQNILNNAKSAHFKFVLESQNAAQSIIEIQSLLKQLSLKNNEIFLMPLGTNNNELDKNLKTLAPLAIKHGFRLSDRLHIRLWDNQKGF” as the sequence, how does the “soluble on expression in E. coli” value read?
The value was “not soluble”.

Which “soluble on expression in E. coli” value does the source give for “MGKKKNKKTEVQQPDPMRKNWIMENMDSGVIYLLESWLKAKSQETGKEISDIFANAVEFNIVLKDWGKEKLEETNTEYQNQQRKLRKTYIEYYDREMK” here?
The value was “soluble”.

With “MGSDKIHHHHHHMSRITDYGFLFQTTFGTSKTNLVNNIQLSQMNSSSVQKQLKAAGIDTNSKKYKAALSEMMKNGNGAMFTNVQAIKNLMSQYDKNGDWIDPNTGLTGLAVTDENRNSYKHIISIPESSREEMFELAKKEFLNENGTLNGDTTKRESVYNNLYRKMDKDDRLSAGWTMEQYEHQYRQAFAEAAKAADPTWKAGKPIPAGALDGITRESVESGKKSVDIKI” as the sequence, how does the “soluble on expression in E. coli” value read?
The value was “not soluble”.

Which “soluble on expression in E. coli” value does the source give for “MGHHHHHHSHMRLPSKPYSTLPIFSLGPSALQRGESSMRSEKPSTAHHRPLRSIARFSSKSKSMDKSDEELQFPKELMEDWSTMEVCVDCKKFISEIISSSRRSLVLANKRARLKRKTQSFYMSSPGPSEYCPSERTISEI” here?
Its value is “not soluble”.

For “MTDYDVLRVFCAPNGGYGNELGVVRDGSVLPEPERRQELAAKLGFSETVFVDDPERGVVDIYTPTLRLPFAGHPCVGTAWLLDVPELVTRAGVVGARLDGEFSWIEARPEWAPPRTLRQYAAVAEVDDLAVPPKGEWVYAWAWEDEAAGRVRARAFPGRDDGIDEDEATGAAALLLTGRLGRALNITQGVGSQILTAPQPEGWVEIGGRVRLERLEHHHHHH”, which “soluble on expression in E. coli” value is on record?
The value was “not soluble”.

For “GGSGPLKPEEHEDILNKLLDPELAQSERTEALQQLRVNYGSFVSEYNDLEEKVAHAKEENLNMHQMLDQTLLELNNM”, which “soluble on expression in E. coli” value is on record?
The value was “soluble”.

Which “soluble on expression in E. coli” value does the source give for “MVKNVAVIVDSSFYIPKEEQQKYNIYVIPTPIIFNGRIKYDSDWSSAAKFFKDMNSAKKMPSTSMASPADVLKAFEQVRADGYRQAILMTMASGISGFYNMAVNLANDYQELDVQVWDSKFTLMISGVQALLAAELSAQGITREEIMKKVALLRDSTRVFIVVDDISHLKRTGRLAGGAALVAGLLNIKPILVFNKASKIVAIGKERQMKRAWNWLLKQYAIDAPDFDRPIRVLFADANNRALTENWQADFHEKYPDVITDFIPIGPLIGVHTGEKAVGFVYMDDWKDIARHH” here?
Its value is “not soluble”.

With “MGSDKIHHHHHHMTDPRTTAFNGRVAHASLKGEIEAERYSEGRWMMVQQPIANILDKPRGARTSQLVFGERFLVLDTEDGFSFGQAERDGYVGYILSGALTGAEPATHWVISPATHLYPKAELKVPPDVCLYFGSQVKVTGEKDDFKRIHTGHFMPSQHLMPIKARFRDSVGIADLFLGTPYLWGGTSRWGIDCSGLVQACLLACGVECPRDTDQQEAALGEEIPSDEALKRGDLIFWKGHVGMMASDRMLLHANAHHMSTAYEPLKDAAARIEAKEYGPITSRKRIAMG” as the sequence, how does the “soluble on expression in E. coli” value read?
Its value is “not soluble”.

Which “soluble on expression in E. coli” value does the source give for “MLRIAKEALTFDDVLLVPAHSTVLPNTADLSTQLTKTIRLNIPMLSAAMDTVTEARLAIALAQEGGIGFIHKNMSIERQAEEVRRVKKHESGVVTDPQTVLPTTTLHEVKALTERNGFAGYPVVTEDNELVGIITGRDVRFVTDLNQPVSVYMTPKERLVTVREGEAREVVLAKMHEKRVEKALVVDDNFHLLGMITVKDFQKAERKPNSCKDEQGRLRVGAAVGAGAGNEERVDALVAAGVDVLLIDSSHGHSEGVLQRIRETRAKYPDLQIIGGNVATGAGARALAEAGCSAVKVGIGPGSICTTRIVTGVGVPQITAVSDAVEALEGTGIPVIADGGIRFSGDIAKAIAAGASAVMVGSMLAGTEESPGEIELYQGRSYKSYRGMGSLGAMSKGSSDRYFQSDNAADKLVPEGIEGRVAYKGRLKEIIHQQMGGLRSCMGLTGCATIDELRTKAEFVRISGAGIQESHVHDVTITKESPNYRLGS” here?
The value was “not soluble”.

For “MTTSIWKKLVTAVRGGASEVGESIADANAIRILDQEIRDADNALVKARDGLITIKAKHKLSAQRLEEHATSIANWEGRAMQALNKGEEALAVECASKIAEIEALRDQEQELADQFGKQVSLLQEQVIKAESRIKSLKQQVEMAKARETVQRARVATATATGGASGSVETAVGSLARLKQRQDEQDAKLEAAEELASQSSGSDLERRLQDAGIGAKSGGAQDVLARLKAKNQTPAQLEHHHHHH”, which “soluble on expression in E. coli” value is on record?
Its value is “not soluble”.

With “MGSDKIHHHHHHMSAEEQINQFKKFCAAIISFDEEEWQAMEKCLRIKFLSKDDYFLRQGKTCSRMGFVCKGYTRLFFLIDGEEHTKDFCFENTFTGSLASFLVRKPAAFNVVAMEDTYMLTIEYNALMELYKNYMCWNTFGRIVVEQFAIRKENREVTFLLNTPEKRYEEVSDQYPHLLQRAPLKMIASYLNMTPETLSRIRSKKTK” as the sequence, how does the “soluble on expression in E. coli” value read?
Its value is “not soluble”.

For “MGSDKIHHHHHHMTCAFARTVESRFAELTPTAKRIASYMLANLDRLGLETADQIAQQTGTSGISVGRFLRSVGYRNLDDLKRELRGGADRPWMITDRLDEYRRTNGTNGTAGTQAAAIHSDDRALASSLDRELDAIRHVYRLAEEPVFAQVADRIAHADAVFILGIQSTRGISNAFSSYLEYLRPRVFYSDGQSGSYVDSLNSEFERPYCIVTDVRAYSRSARRYCQAAAERGQPFALVTDLYCPWAREWPADLLQVKTDVGQFWDSLAPLTCLFNLLITAVVDRLGPAIDRRVARNRELQHTFDQFES”, which “soluble on expression in E. coli” value is on record?
Its value is “not soluble”.
